This assay deals with microtubule (sea-urchin sperm axonemes) (sea urchin (sperm axonemes)). As to the kind of experiment: single-molecule fluorescence imaging.

For the substance “2T-K490CLM, two-tail stalk-truncated cysteine-light mutant kinesin (motility and ATPase experiments) (from UniProt P33176 1-490; P33176 904-963)”, the duration time on MT (short stop mode) was determined as 1.47 s.
In turn, “tail-GFP (kinesin tail 904-963 fused to EGFP) (from UniProt P33176 904-963) (domain or fragment)” returned a duration time on MT (diffusive mode) of 1.73 s.

(Values after publication PMC4629677.)
